Tests used:
Test in all cases: IEDB peptide-MHC binding, cellular MHC/competitive/radioactivity; ≥ and ≤ were set here for values at or beyond the usual limits of such assays
HLA-A*02:02 = target: HLA-A*02:02
HLA-A*02:05 = target: HLA-A*02:05
HLA-A*02:01 = target: HLA-A*02:01
[1] = source organism: Human immunodeficiency virus 1
[2] = source organism: Human immunodeficiency virus type 1 BH10
[3] = source organism: Hepatitis B virus subtype adw2

Q: How did the IC50 (HLA-A*02:02; [1]) turn out when DPKVKQWPL was run?
A: Its IC50 is 10000 nM.

Q: And the IC50 (HLA-A*02:05; [1])?
A: The IC50 was 10000 nM.

Q: What does the source list for EADPTGHSY?
A: IC50 (HLA-A*02:01; source organism: Homo sapiens): 10000 nM; IC50 (HLA-A*02:02; source organism: Homo sapiens): 10000 nM; IC50 (HLA-A*02:05; source organism: Homo sapiens): 10000 nM

Q: Which IC50 (HLA-A*02:02; [2]) does the source give for ILKEPVHGV here?
A: Its IC50 is 150 nM.

Q: And the IC50 (HLA-A*02:05; [2])?
A: Its IC50 is 9.4 nM.

Q: What does the source list for IVGAETFYV?
A: IC50 (HLA-A*02:01; source organism: HIV-1 M:B_MN): 3.5 nM; IC50 (HLA-A*02:02; source organism: HIV-1 M:B_MN): 62 nM; IC50 (HLA-A*02:05; source organism: HIV-1 M:B_MN): 6.5 nM

Q: With LLGRNSFEV as the sequence, how does the IC50 (HLA-A*02:02; source organism: Homo sapiens) read?
A: The IC50 was 87 nM.

Q: And the IC50 (HLA-A*02:05; source organism: Homo sapiens)?
A: The IC50 was 19 nM.

Q: How did the IC50 (HLA-A*02:05; [3]) turn out when LLPIFFCLWV was run?
A: The IC50 was 10000 nM.

Q: How did the IC50 (HLA-A*02:01; [3]) turn out when STLPETTVVRR was run?
A: The IC50 was 1310 nM.

Q: What about the IC50 (HLA-A*02:02; [3]) of the same sequence?
A: Its IC50 is 10000 nM.

Q: What about the IC50 (HLA-A*02:05; [3]) of the same sequence?
A: The IC50 was 10000 nM.

Q: WLSLLVPFV was tested. Which IC50 (HLA-A*02:02; [3]) did it give?
A: Its IC50 is 34 nM.

Q: What about the IC50 (HLA-A*02:05; [3]) of the same sequence?
A: Its IC50 is 4 nM.

Q: What does the source list for YLHTLWKAGI?
A: IC50 (HLA-A*02:02; [3]): 53 nM; IC50 (HLA-A*02:05; [3]): 57 nM
